# Key:
# [1] = target: T1, Programmed Death 1 (PD-1) Fc chimera (R&D Systems, Catalog # 1086-PD-050) (human, UniProt Q15116 25-167); assay: BLI (Octet Red), TPP-985 loaded on anti-human IgG Fc tips, DLAT 10 µg/mL bound first, then PD-1 Fc
# T1 construct: Bought reagent; not shown: Fc part of the bought chimera (captured by anti-human Fc tips)
# Protocol: (§1) Antibodies and antibody fusions were diluted to 16 μg/mL in PBS and loaded onto anti-human IgG Fc tips (ForteBio, Catalog # 18-5064). Human DLAT recombinant protein (ProSpec, Catalog # ENZ-082) was diluted into PBS to 10 μg/mL. […] Finally, a dissociation step in PBS was performed to determine dissociation from the bound antibodies.
# [2] = target: T1, Programmed Death 1 (PD-1) Fc chimera …; assay: BLI (Octet Red), TPP-990 loaded on anti-human IgG Fc tips, DLAT 10 µg/mL bound first, then PD-1 Fc
# Protocol: as §1
# [3] = target: T1, Programmed Death 1 (PD-1) Fc chimera …; assay: BLI, PD-1 Fc loaded on anti-human IgG tips, fusion as analyte, dissociation in PBS
# [4] = target: T1, Programmed Death 1 (PD-1) Fc chimera …; assay: BLI (Octet), PD-1 Fc captured on anti-human Fc tips, TPP-999 at 10 µg/mL in PBS as analyte
# Protocol: (§2) Final dissociation in PBS was performed in the last step on the Bio-Layer Interferometry (BLI) data.
# [5] = target: T1, Programmed Death 1 (PD-1) Fc chimera …; assay: BLI (Octet), PD-1 Fc captured on anti-human Fc tips, TPP-993 in PBS as analyte
# Protocol: as §2
# [6] = target: T1, Programmed Death 1 (PD-1) Fc chimera …; assay: BLI (Octet), PD-1 Fc captured on anti-human Fc tips, TPP-1001 at 10 µg/mL in PBS as analyte
# Protocol: as §2
# T1 sequence (Q15116 25-167, change not shown): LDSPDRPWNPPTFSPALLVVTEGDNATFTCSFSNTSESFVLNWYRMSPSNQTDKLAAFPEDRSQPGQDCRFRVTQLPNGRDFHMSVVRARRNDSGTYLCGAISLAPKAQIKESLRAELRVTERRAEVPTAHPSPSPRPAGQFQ
binder,measurement,setting,value
"TPP-985, human IgG2/4 PD5 antibody (antibody, also called PD5_IgG2-4; anti-DLAT IgG2-4 antibody with no PD-L1 variable-like domain) heavy: QLQLQESGPGLVKPSETLSLTCIVSGGSISRNSYYWGWIRQPPGKGLEWIGSIVYSGSTYHQPSLKSRVTIFLDTSKNQFFLKLTSVTAADTAVYYCARGTRATTWPPPIGYWGQGTLVTVSSASTKGPSVFPLAPCSRSTSESTAALGCLVKDYFPEPVTVSWNSGALTSGVHTFPAVLQSSGLYSLSSVVTVPSSNFGTQTYTCNVDHKPSNTKVDKTVERKCCVECPPCPAPPVAGPSVFLFPPKPKDTLMISRTPEVTCVVVDVSQEDPEVQFNWYVDGVEVHNAKTKPREEQFNSTYRVVSVLTVLHQDWLNGKEYKCKVSNKGLPSSIEKTISKAKGQPREPQVYTLPPSQEEMTKNQVSLTCLVKGFYPSDIAVEWESNGQPENNYKTTPPVLDSDGSFFLYSRLTVDKSRWQEGNVFSCSVMHEALHNHYTQKSLSLSLGK light: QSVLTQPPSVSAAPGQKVTVSCFGSSSNIGNYFASWYQQLPGAAPRLLIYGNNERPSGIPDRFSGSKSGTSATLVITGLQTGDEAAYYCATWDSSLSAVVFGGGTKLTVLGQPKANPTVTLFPPSSEELQANKATLVCLISDFYPGAVTVAWKADGSPVKAGVETTKPSKQSNNKYAASSYLSLTPEQWKSHRSYSCQVTHEGSTVEKTVAPTECS",binding result,[1],no binding (tested: 12.5 µg/mL)
"TPP-990, human IgG2/4 PD5 antibody, C-terminus PD-L1 LC (antibody, Antibody fused with the human PD-L1 variable-like domain) heavy: QLQLQESGPGLVKPSETLSLTCIVSGGSISRNSYYWGWIRQPPGKGLEWIGSIVYSGSTYHQPSLKSRVTIFLDTSKNQFFLKLTSVTAADTAVYYCARGTRATTWPPPIGYWGQGTLVTVSSASTKGPSVFPLAPCSRSTSESTAALGCLVKDYFPEPVTVSWNSGALTSGVHTFPAVLQSSGLYSLSSVVTVPSSNFGTQTYTCNVDHKPSNTKVDKTVERKCCVECPPCPAPPVAGPSVFLFPPKPKDTLMISRTPEVTCVVVDVSQEDPEVQFNWYVDGVEVHNAKTKPREEQFNSTYRVVSVLTVLHQDWLNGKEYKCKVSNKGLPSSIEKTISKAKGQPREPQVYTLPPSQEEMTKNQVSLTCLVKGFYPSDIAVEWESNGQPENNYKTTPPVLDSDGSFFLYSRLTVDKSRWQEGNVFSCSVMHEALHNHYTQKSLSLSLGK light: QSVLTQPPSVSAAPGQKVTVSCFGSSSNIGNYFASWYQQLPGAAPRLLIYGNNERPSGIPDRFSGSKSGTSATLVITGLQTGDEAAYYCATWDSSLSAVVFGGGTKLTVLGQPKANPTVTLFPPSSEELQANKATLVCLISDFYPGAVTVAWKADGSPVKAGVETTKPSKQSNNKYAASSYLSLTPEQWKSHRSYSCQVTHEGSTVEKTVAPTECSGGSSRSSSSGGGGSGGGGFTVTVPKDLYVVEYGSNMTIECKFPVEKQLDLAALIVYWEMEDKNIIQFVHGEEDLKVQHSSYRQRARLLKDQLSLGNAALQITDVKLQDAGVYRCMISYGGADYKRITVKVNA",binding result,[2],no binding (tested: 12.5 µg/mL)
"TPP-1986 (murine IgG1 Fc Silent, N-terminus_PDL1_LC_PD5) (antibody, also called huPDL1; Human PDL1_Mouse PD5) heavy: QLQLQESGPGLVKPSETLSLTCIVSGGSISRNSYYWGWIRQPPGKGLEWIGSIVYSGSTYHQPSLKSRVTIFLDTSKNQFFLKLTSVTAADTAVYYCARGTRATTWPPPIGYWGQGTLVTVSSAKTTPPSVYPLAPGSAAQTNSMVTLGCLVKGYFPEPVTVTWNSGSLSSGVHTFPAVLQSDLYTLSSSVTVPSSTWPSQTVTCNVAHPASSTKVDKKIVPRDCGCKPCICTVPEQSSVFIFPPKPKDVLMISLTPKVTCVVVDISKDDPEVQFSWFVDDVEVHTAQTKPREEQINSTFRSVSELPILHQDWLNGKEFKCRVNSAAFPAPIEKTISKTKGRPKAPQVYTIPPPKEQMAKDKVSLTCMITNFFPEDITVEWQWNGQPAENYKNTQPIMDTDGSYFVYSKLNVQKSNWEAGNTFTCSVLHEGLHNHHTEKSLSHSPGK light: FTVTVPKDLYVVEYGSNMTIECKFPVEKQLDLAALIVYWEMEDKNIIQFVHGEEDLKVQHSSYRQRARLLKDQLSLGNAALQITDVKLQDAGVYRCMISYGGADYKRITVKVNAGGSSRSSSSGGGGSGGGGQSVLTQPPSVSAAPGQKVTVSCFGSSSNIGNYFASWYQQLPGAAPRLLIYGNNERPSGIPDRFSGSKSGTSATLVITGLQTGDEAAYYCATWDSSLSAVVFGGGTKLTVLGQPKSSPSVTLFPPSSEELETNKATLVCTITDFYPGVVTVDWKVDGTPVTQGMETTQPSKQSNNKYMASSYLTLTARAWERHSSYSCQVTHEGHTVEKSLSRADCS",binding result,[3],binds
"TPP-999 (PD2 with PD-L1 fused to the C-terminus of the light chain) (Fab, Fab fusion with the human PD-L1 variable-like domain) heavy: EVQLVESGGGLVKPGGSLRLSCAASGFTFGSYSMTWVRQAPGKGLEWVSFISTVSTYIYYPDSVKGRFTISRDNAKNSLYLQMNSLRAEDTAVYYCARVSGRGSAARDGEKGTYYYYMDVWGKGTTVTVSSASTKGPSVFPLAPSSKSTSGGTAALGCLVKDYFPEPVTVSWNSGALTSGVHTFPAVLQSSGLYSLSSVVTVPSSSLGTQTYICNVNHKPSNTKVDKRVEPKSC light: SSELTQDPAVSVALGQTVTITCQGDSLRSYYASWYQQKPGQAPVLVIFGKNNRPSGIPDRFSGSRSGNTASLTITGAQAEDEADYFCDSRDSSANHWVFGGGTKLTVLQPKAAPSVTLFPPSSEELQANKATLVCLISDFYPGAVTVAWKADSSPVKAGVETTTPSKQSNNKYAASSYLSLTPEQWKSHKSYSCQVTHEGSTVEKTVAPTECSGGSSRSSSSGGGGSGGGGFTVTVPKDLYVVEYGSNMTIECKFPVEKQLDLAALIVYWEMEDKNIIQFVHGEEDLKVQHSSYRQRARLLKDQLSLGNAALQITDVKLQDAGVYRCMISYGGADYKRITVKVNA",binding result,[4],binds
TPP-993 (PD2 Fab having no PD-L1 domain and no linker) (Fab) heavy: EVQLVESGGGLVKPGGSLRLSCAASGFTFGSYSMTWVRQAPGKGLEWVSFISTVSTYIYYPDSVKGRFTISRDNAKNSLYLQMNSLRAEDTAVYYCARVSGRGSAARDGEKGTYYYYMDVWGKGTTVTVSSASTKGPSVFPLAPSSKSTSGGTAALGCLVKDYFPEPVTVSWNSGALTSGVHTFPAVLQSSGLYSLSSVVTVPSSSLGTQTYICNVNHKPSNTKVDKRVEPKSC light: SSELTQDPAVSVALGQTVTITCQGDSLRSYYASWYQQKPGQAPVLVIFGKNNRPSGIPDRFSGSRSGNTASLTITGAQAEDEADYFCDSRDSSANHWVFGGGTKLTVLQPKAAPSVTLFPPSSEELQANKATLVCLISDFYPGAVTVAWKADSSPVKAGVETTTPSKQSNNKYAASSYLSLTPEQWKSHKSYSCQVTHEGSTVEKTVAPTECS,binding result,[5],no binding (tested: 10 µg/mL)
"TPP-1001 (PD2 with PD-L1 fused to the N-terminus of the light chain) (Fab, Fab fusion with the human PD-L1 variable-like domain) heavy: EVQLVESGGGLVKPGGSLRLSCAASGFTFGSYSMTWVRQAPGKGLEWVSFISTVSTYIYYPDSVKGRFTISRDNAKNSLYLQMNSLRAEDTAVYYCARVSGRGSAARDGEKGTYYYYMDVWGKGTTVTVSSASTKGPSVFPLAPSSKSTSGGTAALGCLVKDYFPEPVTVSWNSGALTSGVHTFPAVLQSSGLYSLSSVVTVPSSSLGTQTYICNVNHKPSNTKVDKRVEPKSC light: FTVTVPKDLYVVEYGSNMTIECKFPVEKQLDLAALIVYWEMEDKNIIQFVHGEEDLKVQHSSYRQRARLLKDQLSLGNAALQITDVKLQDAGVYRCMISYGGADYKRITVKVNAGGSSRSSSSGGGGSGGGGSSELTQDPAVSVALGQTVTITCQGDSLRSYYASWYQQKPGQAPVLVIFGKNNRPSGIPDRFSGSRSGNTASLTITGAQAEDEADYFCDSRDSSANHWVFGGGTKLTVLQPKAAPSVTLFPPSSEELQANKATLVCLISDFYPGAVTVAWKADSSPVKAGVETTTPSKQSNNKYAASSYLSLTPEQWKSHKSYSCQVTHEGSTVEKTVAPTECS",binding result,[6],binds
